Results from article PMC8439434 (2021).
Where two headings read alike, the source gives them in different places.

What was measured:
HLA-B*08:01 [1] = target: T1, HLA-B*08:01 (human (endogenous in the Steinlin EBV …))
[2] = target: HLA-C*07:01 purified from the Steinlin EBV transformed homozygous cell line (human (endogenous in the Steinlin EBV …))
HLA-B*08:01 [3] = target: T1, HLA-B*08:01; remark: listed apart in the source

IRSSYIRVL [peptide 3424.0028 (IRSSYIRVL, DNA replication licensing factor MCM5 289-297)]
IC50 (HLA-B*08:01 [1]): 0.301 µM

SRGTSPARM [SARS-CoV-2 nucleocapsid peptide SRGTSPARM (R203/G204)]
IC50 [2]: > 50 µM
IC50 (HLA-B*08:01 [3]): > 50 µM
